In the Immune Epitope Database (IEDB) one finds Kd and IC50 data, which are given here for 16 sequences.

Bounds are passed on as bounds.

Experiment [1] addresses HLA-A*29:02. The experiment is described as follows: IEDB peptide-MHC binding, purified MHC/competitive/fluorescence; filed as Kd, often an IC50 or EC50 that approximates it; ≥ and ≤ were set here for values at or beyond the usual limits of such assays. As to conditions: source organism: Campylobacter jejuni subsp. jejuni NCTC 11168 = ATCC 700819.
Experiment [2] concerns the target HLA-A*24:02. Put plainly: IEDB peptide-MHC binding, purified MHC/direct/fluorescence; filed as Kd, often an IC50 or EC50 that approximates it; ≥ and ≤ were set here for values at or beyond the usual limits of such assays.
In the next experiment the target is HLA-B*08:01. Described as above.
The next experiment concerns the target HLA-B*44:02. Described as above.
In experiment [3] the target is HLA-B*15:01. The description is as above.
A further experiment addresses HLA-B*58:01. The experiment is described as above.
Experiment [4] addresses HLA-A*03:01. The experiment is described as above.
The target in another experiment is HLA-B*27:05. The description is as above.
In a further experiment the target is HLA-A*69:01. The experiment is described as above.
The next experiment has as its target HLA-B*46:01. Described as above.
The target of experiment [5] is HLA-B*07:02. The experiment is described as above.
Another experiment concerns the target HLA-B*40:01. The experiment is described as above.
The target in the next experiment is HLA-A*01:01. The experiment is described as above.
Experiment [6] has as its target HLA-A*02:01. Described as above.
For a further experiment, the target named is HLA-A*31:01. Described as above.
The target in a further experiment is HLA-B*18:01. The experiment is described as above.
A further experiment concerns the target HLA-A*11:01. The description is as above.
The target in experiment [7] is HLA-A*24:02. The experiment is described as follows: IEDB peptide-MHC binding, purified MHC/competitive/fluorescence; ≥ and ≤ were set here for values at or beyond the usual limits of such assays. As to conditions: source organism: Zaire ebolavirus.
Experiment [8] deals with HLA-B*15:01. Described as above. The settings on record: source organism: Zaire ebolavirus.
Experiment [9] concerns the target HLA-A*03:01. Described as above. As to conditions: source organism: Zaire ebolavirus.
The target in experiment [10] is HLA-B*07:02. The description is as above.
The target in experiment [11] is HLA-A*02:01. The experiment is described as above. The settings on record: source organism: Zaire ebolavirus.
The target of another experiment is HLA-B*15:09. Put plainly: IEDB peptide-MHC binding, purified MHC/direct/fluorescence; filed as Kd, often an IC50 or EC50 that approximates it; ≥ and ≤ were set here for values at or beyond the usual limits of such assays.
The target of experiment [12] is HLA-B*39:01. Put plainly: IEDB peptide-MHC binding, purified MHC/competitive/fluorescence; filed as Kd, often an IC50 or EC50 that approximates it; ≥ and ≤ were set here for values at or beyond the usual limits of such assays.
The target in the next experiment is HLA-A*26:01. Put plainly: IEDB peptide-MHC binding, purified MHC/direct/fluorescence; filed as Kd, often an IC50 or EC50 that approximates it; ≥ and ≤ were set here for values at or beyond the usual limits of such assays. As to conditions: source organism: Influenza A virus(A/swine/Shandong/fNY/2003(H9N2)).
A further experiment addresses HLA-A*02:19. The experiment is described as above. As to conditions: source organism: Rickettsia prowazekii.
The target of a further experiment is HLA-A*02:11. The experiment is described as above. The settings on record: source organism: Rickettsia prowazekii.
Experiment [13] addresses HLA-B*39:01. The description is as above.
Another experiment deals with HLA-B*48:01. The experiment is described as above. As to conditions: source organism: Mammarenavirus lassaense.
The target of experiment [14] is HLA-A*29:02. Described as above. As to conditions: source organism: Mammarenavirus lassaense.
The target in another experiment is HLA-B*57:01. Described as above. As to conditions: source organism: Mammarenavirus lassaense.
Where [15] appears, read: source organism: Influenza A virus (A/England/627/01(H1N2)).
Setting [16] is: source organism: Influenza A virus (A/Puerto Rico/8/34/Mount Sinai(H1N1)).
The mark [17] stands for this setting: source organism: Escherichia coli O157:H7.
Setting [18] is: source organism: Zaire ebolavirus.
The mark [19] stands for this setting: source organism: Influenza A virus (A/Viet Nam/HN/2004(H5N1)).
The mark [20] stands for this setting: source organism: Influenza A virus (A/swine/Korea/S190/2004(H9N2)).
[21] abbreviates: source organism: Rickettsia prowazekii.
Setting [22] is: source organism: Vibrio parahaemolyticus AQ3810.
[23] abbreviates: source organism: Mammarenavirus lassaense.

In general, Kd refers to the equilibrium constant for the complex coming apart. LYAYWYHLY: the equilibrium dissociation constant (Kd) in the experiment with HLA-A*29:02 [1] is 0.0008 µM.

As for KMARLGKGY, the dissociation constant (Kd) with HLA-A*24:02 [2] (setting [15]) was at least 20 µM; in the experiment with HLA-B*08:01 (setting [15]), at least 20 µM; with HLA-B*44:02 (setting [15]), at least 20 µM; with HLA-B*15:01 [3] (setting [16]), 0.178 µM; with HLA-B*58:01 (setting [15]), at least 20 µM; in the experiment with HLA-A*03:01 [4] (setting [16]), 0.252 µM. The dissociation constant Kd with HLA-B*27:05 (setting [16]) is 0.379 µM; with HLA-A*69:01 (setting [15]), at least 20 µM; with HLA-B*46:01 (setting [15]), at least 20 µM; with HLA-B*07:02 [5] (setting [15]), at least 20 µM; with HLA-B*40:01 (setting [15]), at least 20 µM; in the experiment with HLA-A*01:01 (setting [15]) it was at least 20 µM. Moreover, in the experiment with HLA-A*02:01 [6] (setting [15]), the Kd was at least 20 µM.

For LLKLWIDKV, the equilibrium dissociation constant (Kd) with HLA-A*24:02 [2] (setting [17]), with HLA-A*31:01 (setting [17]), in the experiment with HLA-B*44:02 (setting [17]), with HLA-B*15:01 [3] (setting [17]), with HLA-B*58:01 (setting [17]) and with HLA-A*03:01 [4] (setting [17]) was at least 20 µM each time. Moreover, the Kd with HLA-B*27:05 (setting [17]), in the experiment with HLA-B*18:01 (setting [17]), in the experiment with HLA-B*07:02 [5] (setting [17]), with HLA-A*11:01 (setting [17]), in the experiment with HLA-B*40:01 (setting [17]) and in the experiment with HLA-A*01:01 (setting [17]) was at least 20 µM in each case. This sequence displayed a dissociation constant Kd with HLA-A*02:01 [6] (setting [17]) of 0.0367 µM.

The term IC50 denotes the concentration at which inhibition is half-maximal. Lower therefore signals greater potency. Turning to RVIPVYQVN, the IC50 with HLA-A*24:02 [7] was 51.6 µM; with HLA-B*15:01 [8], at least 72.8 µM; in the experiment with HLA-A*03:01 [9], at least 277 µM; in the experiment with HLA-B*07:02 [10] (setting [18]) it was at least 151 µM; with HLA-A*02:01 [11] it was at least 87.2 µM.

On to EHFLGIWGL, for which the dissociation constant (Kd) with HLA-B*15:09 (source organism: Bacillus cereus H3081.97) is 0.094 µM; in the experiment with HLA-B*39:01 [12] (source organism: Bacillus thuringiensis str. Al Hakam), 0.0179 µM.

In the case of IWARTYFFK, the Kd with HLA-A*24:02 [2] (source organism: Salmonella enterica subsp. enterica serovar Choleraesuis str. SC-B67) was determined as 0.296 µM. In other words, the sub-micromolar range.

Regarding FRNQVKIRR, the Kd with HLA-A*24:02 [2] (setting [19]), with HLA-B*08:01 (setting [19]), with HLA-B*44:02 (setting [19]), with HLA-B*15:01 [3] (setting [19]), in the experiment with HLA-B*58:01 (setting [19]) and with HLA-A*03:01 [4] (setting [19]) was at least 20 µM each time. In addition, the equilibrium dissociation constant (Kd) with HLA-B*27:05 (setting [16]) is 0.079 µM; in the experiment with HLA-A*69:01 (setting [19]), at least 20 µM; with HLA-B*46:01 (setting [19]), at least 20 µM; in the experiment with HLA-B*18:01 (setting [19]) it was at least 20 µM; with HLA-B*07:02 [5] (setting [19]) it was at least 20 µM; with HLA-A*11:01 (setting [19]), at least 20 µM. Also, the Kd with HLA-B*40:01 (setting [19]), with HLA-A*01:01 (setting [19]), with HLA-A*02:01 [6] (setting [19]) and with HLA-A*26:01 was at least 20 µM throughout.

With IPKRNRSIL, the dissociation constant Kd is at least 20 µM with HLA-A*24:02 [2] (setting [20]); 0.268 µM in the experiment with HLA-B*08:01 (setting [16]); at least 20 µM with HLA-A*31:01 (setting [20]); at least 20 µM with HLA-B*44:02 (setting [20]); at least 20 µM with HLA-B*15:01 [3] (setting [20]); at least 20 µM with HLA-B*58:01 (setting [20]). For the same sequence, the dissociation constant Kd is at least 20 µM in the experiment with HLA-A*03:01 [4] (setting [20]); at least 20 µM with HLA-B*27:05 (setting [20]); at least 20 µM with HLA-A*69:01 (setting [20]); at least 20 µM with HLA-B*46:01 (setting [20]); at least 20 µM with HLA-B*18:01 (setting [20]); 0.015 µM with HLA-B*07:02 [5] (setting [16]). For the same sequence, the dissociation constant (Kd) in the experiment with HLA-A*11:01 (setting [20]), with HLA-B*40:01 (setting [20]), in the experiment with HLA-A*01:01 (setting [20]) and in the experiment with HLA-A*02:01 [6] (setting [20]) was at least 20 µM in each case.

As to RTRREAIVN, the IC50 is at least 92.6 µM with HLA-B*07:02 [10] (setting [18]) and at least 119 µM with HLA-A*02:01 [11].

In the case of VATAHGSTL, the half-inhibitory concentration (IC50) was 12.7 µM with HLA-A*24:02 [7], at least 70.5 µM with HLA-B*07:02 [10] (setting [18]) and at least 136 µM with HLA-A*02:01 [11].

Regarding FGSGWTWVV, the Kd with HLA-A*02:19 was at most 0.001 µM; in the experiment with HLA-A*69:01 (setting [21]) it was 1.18 µM; with HLA-A*02:11 it was at most 0.001 µM; with HLA-A*02:01 [6] (setting [21]), 0.669 µM.

Take KIRSEELSF: the IC50 with HLA-A*24:02 [7] was at least 106 µM; in the experiment with HLA-B*15:01 [8], at least 91.7 µM; with HLA-B*07:02 [10] (setting [18]), at least 173 µM.

RPSSSQIPS displayed an IC50 with HLA-B*07:02 [10] (source organism: Sudan ebolavirus) of 10.9 µM.

EQYGPRHTL: the dissociation constant (Kd) was 0.004 µM with HLA-B*39:01 [13] (setting [22]) and 0.18 µM with HLA-B*15:09 (setting [22]).

Consider YRYEFNNDW, for which the Kd is at least 20 µM with HLA-B*15:09 (source organism: Yersinia pestis CA88-4125) and 0.996 µM with HLA-B*39:01 [12] (source organism: Yersinia pseudotuberculosis IP 31758).

In the case of SHGIDVTDL, the equilibrium dissociation constant (Kd) in the experiment with HLA-B*39:01 [13] (setting [23]), with HLA-A*31:01 (setting [23]), with HLA-B*48:01, with HLA-B*44:02 (setting [23]), in the experiment with HLA-B*15:01 [3] (setting [23]) and with HLA-B*58:01 (setting [23]) was at least 20 µM each time. The dissociation constant (Kd) in the experiment with HLA-A*03:01 [4] (setting [23]), with HLA-B*27:05 (setting [23]), in the experiment with HLA-A*29:02 [14], with HLA-A*69:01 (setting [23]), with HLA-B*46:01 (setting [23]) and with HLA-B*57:01 was at least 20 µM each time. Moreover, the dissociation constant (Kd) in the experiment with HLA-B*18:01 (setting [23]), with HLA-B*07:02 [5] (setting [23]), in the experiment with HLA-A*11:01 (setting [23]), with HLA-B*15:09 (setting [23]), with HLA-B*40:01 (setting [23]) and with HLA-A*01:01 (setting [23]) was at least 20 µM each time. The equilibrium dissociation constant (Kd) with HLA-A*02:01 [6] (setting [23]) is at least 20 µM.
